# Data reported in publication doi:10.1101/2025.11.11.687647 (bioRxiv, 2025).
# Molecular target: the molecule itself
# Experiment: cryo-EM structure
protein,measurement,value
CT–PT–BCCP fragment of MtPC (degradation product) (domain or fragment) ADRGTKILNFLADVTVNNPYGSRPSTIYPDDKLPDLDLRAAPPAGSKQRLVKLGPEGFARWLRESAAVGVTDTTFRDAHQSLLATRVRTSGLSRVAPYLARTMPQLLSVECWGGATYDVALRFLKEDPWERLATLRAAMPNICLQMLLRGRNTVGYTPYPEIVTSAFVQEATATGIDIFRIFDALNNIESMRPAIDAVRETGSAIAEVAMCYTGDLTDPGEQLYTLDYYLKLAEQIVDAGAHVLAIKDMAGLLRPPAAQRLVSALRSRFDLPVHLHTHDTPGGQLASYVAAWHAGADAVDGAAAPLAGTTSQPALSSIVAAAAHTEYDTGLSLSAVCALEPYWEALRKVYAPFESGLPGPTGRVYHHEIPGGQLSNLRQQAIALGLGDRFEEIEEAYAGADRVLGRLVKVTPTSKVVGDLALALVGAGVSADEFASDPARFGIPESVLGFLRGELGDPPGGWPEPLRTAALAGRGAARPTAQLAADDEIALSSVGAKRQATLNRLLFPSPTKEFNEHREAYGDTSQLSANQFFYGLRQGEEHRVKLERGVELLIGLEAISEPDERGMRTVMCILNGQLRPVLVRDRSIASAVPAAEKADRGNPGHIAAPFAGVVTVGVCVGERVGAGQTIATIEAMKMEAPITAPVAGTVERVAVSDTAQVEGGDLLVVVS,stoichiometry N,2
